Reference: paper PMC11513116
Where “and” joins values, the source holds several entries; their conditions need not be identical. Equal entries are not always repeated.

Biological target: GCSC1-GFP fusion protein (UBIpro::GCSC1-GFP) (rice (variety Lemont))
Assay: native gel or EMSA

stoichiometry N: 2 and 4
Substance: GCSC1-GFP fusion protein (UBIpro::GCSC1-GFP) (natural protein)
